Measurements: patent publication US20200024322A1 (Eli Lilly, published 2020)
Numbered stars: 1 amine (or outer) side, 2 acyl side, 3 side chain; on linkers, the order of the positions; unused ones are H or OH. Square brackets hold non-standard residues; d marks the D form. Side chains are listed from the residue outwards. Ends that are not written are not given here. * marks the point of attachment. C20 diacid = O=C(O)CCCCCCCCCCCCCCCCCCC(=O)*; C18 diacid = O=C(O)CCCCCCCCCCCCCCCCC(=O)*; γGlu = O=C(O)[C@H](CCC(=O)[*:2])N[*:1]; AEEA = NCCOCCOCC(=O)O; Aib = CC(C)(N)C(=O)O

What was measured:
[1] = target: T1, human glucagon receptor (human, UniProt P47871 26-477); assay: [125I]-Gcg competition SPA, hGcgR membranes
T1 construct: whole, on cells; also called hGcgR; GcgR

[2] = target: T2, human GIP receptor (human, UniProt P48546 22-466); assay: [125I]-GIP competition SPA, hGIPR membranes
T2 construct: whole, on cells; also called hGIPR; hGIP-R
T2 sequence (looked up): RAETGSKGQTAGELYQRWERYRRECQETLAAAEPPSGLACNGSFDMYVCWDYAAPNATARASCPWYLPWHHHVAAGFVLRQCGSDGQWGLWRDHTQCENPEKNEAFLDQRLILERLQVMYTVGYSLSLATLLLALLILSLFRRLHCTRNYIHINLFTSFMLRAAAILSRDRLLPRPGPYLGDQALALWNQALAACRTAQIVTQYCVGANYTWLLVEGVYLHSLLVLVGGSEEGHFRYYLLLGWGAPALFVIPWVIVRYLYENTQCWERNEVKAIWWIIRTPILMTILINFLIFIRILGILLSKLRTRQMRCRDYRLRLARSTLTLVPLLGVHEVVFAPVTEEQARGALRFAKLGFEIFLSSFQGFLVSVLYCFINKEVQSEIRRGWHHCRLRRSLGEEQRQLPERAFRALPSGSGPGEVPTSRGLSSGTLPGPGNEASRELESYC

[3] = target: T3, human GLP-1 receptor (human, UniProt P43220 24-463); assay: [125I]-GLP-1 competition SPA, hGLP-1R membranes
T3 construct: whole, on cells; also called hGLP-1R; hGLP1R
Procedure, shortened: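 Competition binding in 25 mM HEPES pH 7.4, 2.5 mM CaCl₂, 1 mM MgCl₂, 0.1% bacitracin, 0.003% TWEEN-20, EDTA-free protease inhibitors. IC₅₀ from four-parameter nonlinear fit; Kᵢ given as geometric mean ± SEM, n = independent replicates on different days.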

T1 sequence (P47871 26-477): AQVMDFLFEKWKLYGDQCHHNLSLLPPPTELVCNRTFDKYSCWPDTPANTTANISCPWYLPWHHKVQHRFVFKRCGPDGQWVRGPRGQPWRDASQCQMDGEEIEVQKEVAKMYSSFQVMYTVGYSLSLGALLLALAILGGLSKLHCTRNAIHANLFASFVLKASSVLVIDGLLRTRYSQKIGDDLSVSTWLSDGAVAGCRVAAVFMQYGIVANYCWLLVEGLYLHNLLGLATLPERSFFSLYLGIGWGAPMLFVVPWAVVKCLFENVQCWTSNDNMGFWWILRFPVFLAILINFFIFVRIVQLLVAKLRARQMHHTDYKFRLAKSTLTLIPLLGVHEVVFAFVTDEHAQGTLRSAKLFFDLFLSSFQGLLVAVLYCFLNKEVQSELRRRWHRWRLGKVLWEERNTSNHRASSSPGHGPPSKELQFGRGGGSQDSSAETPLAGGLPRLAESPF

B1: Example 241 (peptide)
peptide: YXEGTXTSDVSIXLDXKAQXTFIXXLIEGGPSSGAPPPS
modifications: Aib2; αMeF(2F)6; αMeL13; Orn16; K17((2-[2-(2-Amino-ethoxy)-ethoxy]-acetyl)2-(γ-Glu)-CO-(CH2)16-CO2H); Aib20; D-Glu24; αMeY25; C-terminal NH2
Ki [1]: 167 nM | Ki [2]: 0.042 nM | Ki [3]: 0.799 nM

B2: Example 242 (peptide)
peptide: YXEGTXTSDVSIXLDXKAQXAFIXXLIEGGPSSGAPPPS
modifications: Aib2; αMeF(2F)6; αMeL13; Orn16; K17((2-[2-(2-Amino-ethoxy)-ethoxy]-acetyl)2-(γ-Glu)-CO-(CH2)16-CO2H); Aib20; D-Glu24; αMeY25; C-terminal NH2
Ki [1]: 95.9 nM | Ki [2]: 0.0604 nM | Ki [3]: 0.853 nM

B3: Example 243 (peptide)
peptide: YXEGTXTSDLSIXLDXKAQXTFIXXLIEGGPSSGAPPPS
modifications: Aib2; αMeF(2F)6; αMeL13; Orn16; K17((2-[2-(2-Amino-ethoxy)-ethoxy]-acetyl)2-(γ-Glu)-CO-(CH2)16-CO2H); Aib20; D-Glu24; αMeY25; C-terminal NH2
Ki [1]: 145 nM | Ki [2]: 0.0325 nM | Ki [3]: 0.67 nM

B4: Example 244 (peptide)
peptide: YXEGTXTSDLSIXLDXKAQXAFIXXLIEGGPSSGAPPPS
modifications: Aib2; αMeF(2F)6; αMeL13; Orn16; K17((2-[2-(2-Amino-ethoxy)-ethoxy]-acetyl)2-(γ-Glu)-CO-(CH2)16-CO2H); Aib20; D-Glu24; αMeY25; C-terminal NH2
Ki [1]: 87.8 nM | Ki [2]: 0.0308 nM | Ki [3]: 0.82 nM

B5: Example 240 (peptide)
peptide: YXEGTXTSDXSIXLDXKAQXAFIXXLIEGGPSSGAPPPS
modifications: Aib2; αMeF(2F)6; 4Pal10; αMeL13; Orn16; K17((2-[2-(2-Amino-ethoxy)-ethoxy]-acetyl)2-(γ-Glu)-CO-(CH2)16-CO2H); Aib20; D-Glu24; αMeY25; C-terminal NH2
Ki [1]: 204 nM | Ki [2]: 0.0284 nM | Ki [3]: 0.552 nM

B6: Example 239 (peptide)
peptide: YXEGTXTSDXSIXLDXKAQXTFIXXLIEGGPSSGAPPPS
modifications: Aib2; αMeF(2F)6; 4Pal10; αMeL13; Orn16; K17((2-[2-(2-Amino-ethoxy)-ethoxy]-acetyl)2-(γ-Glu)-CO-(CH2)16-CO2H); Aib20; D-Glu24; αMeY25; C-terminal NH2
Ki [1]: 596 nM | Ki [2]: 0.101 nM | Ki [3]: 2.71 nM

B7: Example 252 (peptide)
peptide: YXEGTXTSDXSIXLDXKAQXAFIXXLIAGGPSSGAPPPS
modifications: Aib2; αMeF(2F)6; 4Pal10; αMeL13; Orn16; K17((2-[2-(2-Amino-ethoxy)-ethoxy]-acetyl)2-(εK)-CO-(CH2)18-CO2H); Aib20; D-Glu24; αMeY25; C-terminal NH2
Ki [1]: 26 nM | Ki [2]: 0.00971 nM | Ki [3]: 0.383 nM

B8: Example 250 (peptide)
peptide: YXEGTXTSDYSIXLDXKAQXEFIXYLIEGGPSSGAPPPS
modifications: Aib2; αMeF(2F)6; Aib13; Orn16; K17((2-[2-(2-Amino-ethoxy)-ethoxy]-acetyl)2-(γ-Glu)-CO-(CH2)18-CO2H); Aib20; D-Glu24; C-terminal NH2
Ki [1]: 198 nM | Ki [2]: 0.0171 nM | Ki [3]: 1.72 nM

B9: Example 251 (peptide)
peptide: YXEGTXTSDXSIXLDXKAQXAFIXXLIEGGPSSGAPPPS
modifications: Aib2; αMeF(2F)6; 4Pal10; αMeL13; Orn16; K17((2-[2-(2-Amino-ethoxy)-ethoxy]-acetyl)2-(εK)-CO-(CH2)18-CO2H); Aib20; D-Glu24; αMeY25; C-terminal NH2
Ki [1]: 21.2 nM | Ki [2]: 0.0249 nM | Ki [3]: 1.09 nM

B10: Example 254 (peptide)
peptide: YXEGTFTSDYSILLDKKAQQAFIEYLIEGGPSSGAPPPS
modifications: Aib2; K17((2-[2-(2-Amino-ethoxy)-ethoxy]-acetyl)2-(γ-Glu)-CO-(CH2)18-CO2H); C-terminal NH2
Ki [1]: 148 nM | Ki [2]: 0.108 nM | Ki [3]: 2.58 nM

B11: Example 255 (peptide)
peptide: YXEGTFTSDYSILLDKKAQHAFIEYLIEGGPSSGAPPPS
modifications: Aib2; K17((2-[2-(2-Amino-ethoxy)-ethoxy]-acetyl)2-(γ-Glu)-CO-(CH2)18-CO2H); C-terminal NH2
Ki [1]: 257 nM | Ki [2]: 0.0772 nM | Ki [3]: 2.58 nM

B12: Example 264 (peptide)
peptide: YXEGTXTSDXSIXLDXKAQXEFIXXLIEGGPSSG
modifications: Aib2; αMeF(2F)6; 4Pal10; αMeL13; Orn16; K17((2-[2-(2-Amino-ethoxy)-ethoxy]-acetyl)2-(γ-Glu)-CO-(CH2)16-CO2H); Aib20; D-Glu24; αMeY25; C-terminal NH2
Ki [1]: 388 nM | Ki [2]: 0.015 nM | Ki [3]: 0.412 nM

B13: Example 265 (peptide)
peptide: YXEGTXTSDXSIXLDXKAQXEFIXXLIEGG
modifications: Aib2; αMeF(2F)6; 4Pal10; αMeL13; Orn16; K17((2-[2-(2-Amino-ethoxy)-ethoxy]-acetyl)2-(γ-Glu)-CO-(CH2)16-CO2H); Aib20; D-Glu24; αMeY25; C-terminal NH2
Ki [1]: 567 nM | Ki [2]: 0.0224 nM | Ki [3]: 0.537 nM

B14: Example 266 (peptide)
peptide: Y[Aib]EGTFTSDYSILLDKK([AEEA-AEEA-γGlu-C18 diacid])AQ[Aib]AFIEYLIEGGPSSG-NH2
modifications: N-terminus assumed
SMILES: CC[C@H](C)[C@H](NC(=O)[C@H](CC(C)C)NC(=O)[C@H](Cc1ccc(O)cc1)NC(=O)[C@H](CCC(=O)O)NC(=O)[C@@H](NC(=O)[C@H](Cc1ccccc1)NC(=O)[C@H](C)NC(=O)C(C)(C)NC(=O)[C@H](CCC(N)=O)NC(=O)[C@H](C)NC(=O)[C@H](CCCCNC(=O)COCCOCCNC(=O)COCCOCCNC(=O)CC[C@H](NC(=O)CCCCCCCCCCCCCCCCC(=O)O)C(=O)O)NC(=O)[C@H](CCCCN)NC(=O)[C@H](CC(=O)O)NC(=O)[C@H](CC(C)C)NC(=O)[C@H](CC(C)C)NC(=O)[C@@H](NC(=O)[C@H](CO)NC(=O)[C@H](Cc1ccc(O)cc1)NC(=O)[C@H](CC(=O)O)NC(=O)[C@H](CO)NC(=O)[C@@H](NC(=O)[C@H](Cc1ccccc1)NC(=O)[C@@H](NC(=O)CNC(=O)[C@H](CCC(=O)O)NC(=O)C(C)(C)NC(=O)[C@@H](N)Cc1ccc(O)cc1)[C@@H](C)O)[C@@H](C)O)[C@@H](C)CC)[C@@H](C)CC)C(=O)N[C@@H](CCC(=O)O)C(=O)NCC(=O)NCC(=O)N1CCC[C@H]1C(=O)N[C@@H](CO)C(=O)N[C@@H](CO)C(=O)NCC(N)=O
Ki [1]: 193 nM | Ki [2]: 0.0666 nM | Ki [3]: 2.01 nM

B15: Example 272 (peptide)
peptide: Y[Aib]EGTFTSDYSILLDKK([AEEA-AEEA-γGlu-C18 diacid])AQ[Aib]AFIEYLIAGGPSSG-NH2
modifications: N-terminus assumed
SMILES: CC[C@H](C)[C@H](NC(=O)[C@H](CC(C)C)NC(=O)[C@H](Cc1ccc(O)cc1)NC(=O)[C@H](CCC(=O)O)NC(=O)[C@@H](NC(=O)[C@H](Cc1ccccc1)NC(=O)[C@H](C)NC(=O)C(C)(C)NC(=O)[C@H](CCC(N)=O)NC(=O)[C@H](C)NC(=O)[C@H](CCCCNC(=O)COCCOCCNC(=O)COCCOCCNC(=O)CC[C@H](NC(=O)CCCCCCCCCCCCCCCCC(=O)O)C(=O)O)NC(=O)[C@H](CCCCN)NC(=O)[C@H](CC(=O)O)NC(=O)[C@H](CC(C)C)NC(=O)[C@H](CC(C)C)NC(=O)[C@@H](NC(=O)[C@H](CO)NC(=O)[C@H](Cc1ccc(O)cc1)NC(=O)[C@H](CC(=O)O)NC(=O)[C@H](CO)NC(=O)[C@@H](NC(=O)[C@H](Cc1ccccc1)NC(=O)[C@@H](NC(=O)CNC(=O)[C@H](CCC(=O)O)NC(=O)C(C)(C)NC(=O)[C@@H](N)Cc1ccc(O)cc1)[C@@H](C)O)[C@@H](C)O)[C@@H](C)CC)[C@@H](C)CC)C(=O)N[C@@H](C)C(=O)NCC(=O)NCC(=O)N1CCC[C@H]1C(=O)N[C@@H](CO)C(=O)N[C@@H](CO)C(=O)NCC(N)=O
Ki [1]: 550 nM | Ki [2]: 0.0353 nM | Ki [3]: 1.22 nM

B16: Example 317 (peptide)
peptide: Y[Aib]EGTFTSDYSILLDKK([AEEA-AEEA-γGlu-C20 diacid])AQ[Aib]AFIEYLIAGGPSSG-NH2
modifications: N-terminus assumed
SMILES: CC[C@H](C)[C@H](NC(=O)[C@H](CC(C)C)NC(=O)[C@H](Cc1ccc(O)cc1)NC(=O)[C@H](CCC(=O)O)NC(=O)[C@@H](NC(=O)[C@H](Cc1ccccc1)NC(=O)[C@H](C)NC(=O)C(C)(C)NC(=O)[C@H](CCC(N)=O)NC(=O)[C@H](C)NC(=O)[C@H](CCCCNC(=O)COCCOCCNC(=O)COCCOCCNC(=O)CC[C@H](NC(=O)CCCCCCCCCCCCCCCCCCC(=O)O)C(=O)O)NC(=O)[C@H](CCCCN)NC(=O)[C@H](CC(=O)O)NC(=O)[C@H](CC(C)C)NC(=O)[C@H](CC(C)C)NC(=O)[C@@H](NC(=O)[C@H](CO)NC(=O)[C@H](Cc1ccc(O)cc1)NC(=O)[C@H](CC(=O)O)NC(=O)[C@H](CO)NC(=O)[C@@H](NC(=O)[C@H](Cc1ccccc1)NC(=O)[C@@H](NC(=O)CNC(=O)[C@H](CCC(=O)O)NC(=O)C(C)(C)NC(=O)[C@@H](N)Cc1ccc(O)cc1)[C@@H](C)O)[C@@H](C)O)[C@@H](C)CC)[C@@H](C)CC)C(=O)N[C@@H](C)C(=O)NCC(=O)NCC(=O)N1CCC[C@H]1C(=O)N[C@@H](CO)C(=O)N[C@@H](CO)C(=O)NCC(N)=O
Ki [1]: 253 nM | Ki [2]: 0.0215 nM | Ki [3]: 2.63 nM
